Data on 4 molecules can be found in US20220251204A1 (AstraZeneca / MedImmune, published 2022).

Assay [1] has as its target T1, CTLA-4-Fc (human recombinant protein, R&D Systems) (human, UniProt P16410 37-162).
T1 construct: also called CTLA-4-Fc antigen; not shown: Fc part of the bought fusion
T1 sequence: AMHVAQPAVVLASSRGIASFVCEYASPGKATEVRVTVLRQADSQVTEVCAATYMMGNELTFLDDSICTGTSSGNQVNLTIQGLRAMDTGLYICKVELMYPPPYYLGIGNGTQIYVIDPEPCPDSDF
Briefly: Octet, same tip after PDL1-His and bispecific, then CTLA-4-Fc (100 nM per paragraph 296): concurrent binding. (In general: In BLI a coated tip is dipped into the sample, and binding shifts an interference pattern.)

Assay [2] concerns the target T2, cynomolgus PD-1 (cynomolgus, UniProt B0LAJ3 25-170).
T2 construct: also called cyno PD1
Briefly: SPR, BIAcore T200; antibody captured on mouse anti-huIgG-Fab, antigen injected. On the technique in general: Surface plasmon resonance follows binding to a sensor surface in real time, without labels.

In assay [3] the target is T3, human PD-1 antigen (soluble) (human, UniProt Q15116 25-170).
T3 construct: also called hu PD1; Biotinylated human PD-1
T3 sequence (Q15116 25-170 limits assumed): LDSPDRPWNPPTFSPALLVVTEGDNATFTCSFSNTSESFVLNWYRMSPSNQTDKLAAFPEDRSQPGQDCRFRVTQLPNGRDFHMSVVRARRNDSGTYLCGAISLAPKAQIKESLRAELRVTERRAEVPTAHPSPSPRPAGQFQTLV
The description is as above.

Assay [4] has as its target T4, human TIM3 (soluble) (human, UniProt Q8TDQ0 22-202).
T4 construct: also called Biotinylated human TIM3
T4 sequence: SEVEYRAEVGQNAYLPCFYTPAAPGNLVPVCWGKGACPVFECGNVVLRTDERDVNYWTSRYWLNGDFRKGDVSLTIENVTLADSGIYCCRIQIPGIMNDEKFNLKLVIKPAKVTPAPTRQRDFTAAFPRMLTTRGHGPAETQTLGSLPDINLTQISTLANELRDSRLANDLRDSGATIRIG
The description is as above.

The target of assay [5] is T5, cynomolgus TIM3 (cynomolgus, UniProt A0A2K5U3G7 22-195).
T5 construct: also called Cyno TIM3
T5 sequence: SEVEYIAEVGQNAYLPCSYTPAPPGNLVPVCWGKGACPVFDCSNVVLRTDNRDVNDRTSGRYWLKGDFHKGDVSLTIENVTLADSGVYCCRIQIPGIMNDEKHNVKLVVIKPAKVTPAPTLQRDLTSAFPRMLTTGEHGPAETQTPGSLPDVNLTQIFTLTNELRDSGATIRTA
Described as above.

T2 sequence (B0LAJ3 entry or part of it limits assumed): as the sequence (Q15116 25-170 limits assumed) above, with D2E, P10A, V19L, T35A, Q75R, T144A counted along it

B1: Bis2 PD-L1/CTLA-4 (bispecific antibody, human IgG4 S228P, kappa)
heavy: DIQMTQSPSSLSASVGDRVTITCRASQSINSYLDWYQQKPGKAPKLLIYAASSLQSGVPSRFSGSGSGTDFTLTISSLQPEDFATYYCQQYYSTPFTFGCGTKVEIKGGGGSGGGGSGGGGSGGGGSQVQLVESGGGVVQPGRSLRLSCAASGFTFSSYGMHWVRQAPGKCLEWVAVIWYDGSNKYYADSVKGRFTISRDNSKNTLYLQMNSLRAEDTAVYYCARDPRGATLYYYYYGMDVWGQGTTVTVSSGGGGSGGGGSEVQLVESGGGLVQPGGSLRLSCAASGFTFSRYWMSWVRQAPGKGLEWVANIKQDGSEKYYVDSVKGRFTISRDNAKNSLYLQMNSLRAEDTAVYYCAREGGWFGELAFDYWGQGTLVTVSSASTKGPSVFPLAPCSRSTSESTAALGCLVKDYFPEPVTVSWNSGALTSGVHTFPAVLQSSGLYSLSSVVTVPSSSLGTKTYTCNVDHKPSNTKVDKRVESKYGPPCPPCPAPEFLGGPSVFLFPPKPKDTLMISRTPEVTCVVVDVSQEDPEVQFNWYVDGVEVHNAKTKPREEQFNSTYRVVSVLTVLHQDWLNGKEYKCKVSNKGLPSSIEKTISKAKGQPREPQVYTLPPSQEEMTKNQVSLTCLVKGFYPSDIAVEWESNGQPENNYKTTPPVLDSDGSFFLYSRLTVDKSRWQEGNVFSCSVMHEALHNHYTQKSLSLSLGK
light: EIVLTQSPGTLSLSPGERATLSCRASQRVSSSYLAWYQQKPGQAPRLLIYDASSRATGIPDRFSGSGSGTDFTLTISRLEPEDFAVYYCQQYGSLPWTFGQGTKVEIKRTVAAPSVFIFPPSDEQLKSGTASVVCLLNNFYPREAKVQWKVDNALQSGNSQESVTEQDSKDSTYSLSSTLTLSKADYEKHKVYACEVTHQGLSSPVTKSFNRGEC
Regarding B1, the binding result in assay [1] is listed as “binds”.

B2: Bis3 PD-L1/CTLA-4 (bispecific antibody, human IgG4 S228P, kappa)
heavy: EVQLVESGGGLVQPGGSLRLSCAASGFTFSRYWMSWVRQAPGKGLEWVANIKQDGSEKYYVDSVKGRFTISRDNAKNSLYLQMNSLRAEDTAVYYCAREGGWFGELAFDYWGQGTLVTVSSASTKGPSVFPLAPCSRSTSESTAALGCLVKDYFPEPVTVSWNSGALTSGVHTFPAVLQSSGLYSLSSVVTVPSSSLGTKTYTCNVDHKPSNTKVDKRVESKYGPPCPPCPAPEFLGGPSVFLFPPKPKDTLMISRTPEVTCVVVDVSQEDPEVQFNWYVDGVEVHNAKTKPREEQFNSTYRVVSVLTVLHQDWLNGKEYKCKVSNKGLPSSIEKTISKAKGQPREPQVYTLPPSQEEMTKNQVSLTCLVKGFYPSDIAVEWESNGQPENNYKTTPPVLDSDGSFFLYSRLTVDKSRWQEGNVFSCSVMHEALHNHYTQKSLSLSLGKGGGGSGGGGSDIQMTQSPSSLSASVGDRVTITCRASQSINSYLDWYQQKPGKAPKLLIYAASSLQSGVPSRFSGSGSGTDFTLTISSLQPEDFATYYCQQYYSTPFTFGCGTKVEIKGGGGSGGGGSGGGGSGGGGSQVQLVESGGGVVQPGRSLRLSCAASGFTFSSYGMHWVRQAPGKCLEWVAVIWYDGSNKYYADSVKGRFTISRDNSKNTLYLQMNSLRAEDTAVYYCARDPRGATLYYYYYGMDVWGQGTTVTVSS
light: B1 light
Regarding B2, the binding result in assay [1] is “binds”.

B3: LO115 IgG1-TM (antibody, V domains shown)
VH: EVQLVESGGGLVQPGGSLRLSCAASGFTFSDYGMHWVRQAPGKGLEWVAYISSGSYTIYSADSVKGRFTISRDNAKNSLYLQMNSLRAEDTAVYYCARRAPNSFYEYYFDYWGQGTTVTVSS
VL: QIVLTQSPATLSLSPGERATLSCSASSKHTNLYWSRHMYWYQQKPGQAPRLLIYLTSNRATGIPARFSGSGSGTDFTLTISSLEPEDFAVYYCQQWSSNPFTFGQGTKLEIK
notes: also called parental LO115 IgG1
In assay [2], B3 gave a Kd of 0.81 nM, a koff of 0.000238 s⁻¹ and a kon of 346000 M⁻¹ s⁻¹. In assay [3], this molecule showed a Kd of 0.79 nM, a koff of 0.000237 s⁻¹ and a kon of 302000 M⁻¹ s⁻¹.

B4: PD-1(LO115)/TIM3(O13-1) DuetMab (bispecific antibody, human IgG1, kappa, lambda)
heavy 1: EVQLVESGGGLVQPGGSLRLSCAASGFTFSDYGMHWVRQAPGKGLEWVAYISSGSYTIYSADSVKGRFTISRDNAKNSLYLQMNSLRAEDTAVYYCARRAPNSFYEYYFDYWGQGTTVTVSSASTKGPSVFPLAPSSKSTSGGTAALGCLVKDYFPEPVTVSWNSGALTSGVHTFPAVLQSSGLYSLSSVVTVPSSSLGTQTYICNVNHKPSNTKVDKRVEPKSCDKTHTCPPCPAPEFEGGPSVFLFPPKPKDTLMISRTPEVTCVVVDVSHEDPEVKFNWYVDGVEVHNAKTKPREEQYNSTYRVVSVLTVLHQDWLNGKEYKCKVSNKALPASIEKTISKAKGQPREPQVCTLPPSREEMTKNQVSLSCAVKGFYPSDIAVEWESNGQPENNYKTTPPVLDSDGSFFLVSKLTVDKSRWQQGNVFSCSVMHEALHNHYTQKSLSLSPGK
light 1: QIVLTQSPATLSLSPGERATLSCSASSKHTNLYWSRHMYWYQQKPGQAPRLLIYLTSNRATGIPARFSGSGSGTDFTLTISSLEPEDFAVYYCQQWSSNPFTFGQGTKLEIKRTVAAPSVFIFPPSDEQLKSGTASVVCLLNNFYPREAKVQWKVDNALQSGNSQESVTEQDSKDSTYSLSSTLTLSKADYEKHKVYACEVTHQGLSSPVTKSFNRGEC
heavy 2: not shown
light 2: SYVLTQPPSVSVAPGKTARITCGGDNIGGKSVHWYQQKPGQAPVLVIYYDSDRPSGIPERFSGSNSGNTATLTISRVEAGDEADYYCQVLDRRSDHFLFGGGTKLTVLGQPKAAPSVTLFPPCSEELQANKATLVCLISDFYPGAVTVAWKADSSPVKAGVETTTPSKQSNNKYAASSYLSLTPEQWKSHRSYSCQVTHEGSTVEKTVAPTEVS
notes: also called PD-1/TIM3 DuetMab
Turning to B4, the Kd in assay [2] was found to be 0.44 nM; in assay [3], 0.81 nM; in assay [4] it was 4.15 nM; in assay [5], 25.6 nM. Besides, the koff is 0.000215 s⁻¹ in assay [2], 0.000236 s⁻¹ in assay [3], 0.00813 s⁻¹ in assay [4] and 0.0761 s⁻¹ in assay [5]. Further, the on-rate constant (kon) in assay [2] was found to be 490000 M⁻¹ s⁻¹; in assay [3], 295000 M⁻¹ s⁻¹; in assay [4], 1.96e+06 M⁻¹ s⁻¹; in assay [5], 2.98e+06 M⁻¹ s⁻¹.

As usually defined, the Kd is the free concentration of one partner at which half of the binding sites on the other are occupied at equilibrium, for simple one-to-one binding. A high value points to lower affinity. Broadly, the koff is the rate constant with which the complex falls apart. Low readings indicate slow dissociation, high ones fast dissociation. A word on the kon: it is a measure of how fast the partners come together. Read a high kon as faster complex formation.
